Blank lines part the entries; values can stand above or below the binder they belong to.
What was measured:
GST-HY5 = molecular target: T1, GST-HY5 (Arabidopsis thaliana, UniProt O24646 1-168); experiment: EMSA; 0.5 ug protein; no BBX21; 10 mM Tris-HCl (pH not stated), 150 mM KCl, 1 mM DTT, 50 ng/ml poly(dI-dC), 2.5% glycerol, 0.05% NP-40, 100 mM ZnCl2 (so in the source), 0.5 ug/ml BSA, 20 min at room temperature; 6% native PAGE; conditions: protein: recombinant; tags: N-terminal GST (pGEX-6P-1, printed pEGX-6P-1); chain copies: 2; label: 5' biotin; blunt (complementary oligonucleotides; second strand not seen in material)
T1 sequence: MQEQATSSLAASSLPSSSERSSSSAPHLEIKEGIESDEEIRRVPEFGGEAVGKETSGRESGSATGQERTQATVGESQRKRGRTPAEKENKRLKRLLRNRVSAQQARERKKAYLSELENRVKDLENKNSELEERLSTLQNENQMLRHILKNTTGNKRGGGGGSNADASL

6xHis-BBX21 (STH2) = molecular target: T2, 6xHis-BBX21 (STH2) (Arabidopsis thaliana, UniProt Q9LQZ7 1-331); experiment: EMSA; 10 mM Tris-HCl (pH not stated), 150 mM KCl, 1 mM DTT, 50 ng/ml poly(dI-dC), 2.5% glycerol, 0.05% NP-40, 100 mM ZnCl2 (so in the source), 0.5 ug/ml BSA, 20 min at room temperature; 6% native PAGE; conditions: protein: recombinant; tags: 6xHis; label: 5' biotin; blunt (complementary oligonucleotides; second strand not seen in material)
T2 sequence: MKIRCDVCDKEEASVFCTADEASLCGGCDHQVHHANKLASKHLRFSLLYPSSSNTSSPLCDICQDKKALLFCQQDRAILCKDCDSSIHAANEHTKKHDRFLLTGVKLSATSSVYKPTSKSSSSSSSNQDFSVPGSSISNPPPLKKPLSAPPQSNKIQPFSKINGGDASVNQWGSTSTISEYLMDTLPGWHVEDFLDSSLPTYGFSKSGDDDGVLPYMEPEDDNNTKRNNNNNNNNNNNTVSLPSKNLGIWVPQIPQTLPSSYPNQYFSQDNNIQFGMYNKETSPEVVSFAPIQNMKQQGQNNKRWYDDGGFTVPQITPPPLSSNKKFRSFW

GST-ABI5 = molecular target: T3, GST-ABI5 (Arabidopsis thaliana, UniProt Q9SJN0 1-442); experiment: pull-down; 2 µg 6×His-BBX21 bound to Ni-NTA magnetic beads (2 h, 4°C), incubated overnight at 4°C with 2 µg GST or GST-ABI5; wash with 10 mM Tris pH 8.0, 100 mM NaCl, 0.1% Triton X-100, 5 mM imidazol; Western blot with anti-GST; conditions: both partners purified
T3 construct: ABI5 (ABA … 5), Arabidopsis thaliana; Probably made in E. coli like GST and GST-HY5; source: purified
T3 sequence (looked up): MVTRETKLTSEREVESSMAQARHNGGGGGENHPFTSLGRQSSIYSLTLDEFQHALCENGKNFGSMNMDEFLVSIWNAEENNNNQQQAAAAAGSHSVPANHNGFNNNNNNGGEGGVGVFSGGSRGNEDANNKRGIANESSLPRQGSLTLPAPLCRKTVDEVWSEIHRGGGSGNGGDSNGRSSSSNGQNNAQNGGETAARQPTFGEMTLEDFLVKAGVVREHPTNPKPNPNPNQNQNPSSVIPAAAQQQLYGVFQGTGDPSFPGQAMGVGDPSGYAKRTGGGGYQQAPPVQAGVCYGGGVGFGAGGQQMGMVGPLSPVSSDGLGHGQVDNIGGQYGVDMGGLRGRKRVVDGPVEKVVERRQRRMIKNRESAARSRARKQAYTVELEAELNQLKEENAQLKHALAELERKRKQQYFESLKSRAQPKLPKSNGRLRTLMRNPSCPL

B1: ABI5 promoter probe (dsDNA)
DNA 1: GATTCCGAACTTCCATTGGGAGTGCACGTGGACTATTCACTGCATAAGG
DNA 2: CCTTATGCAGTGAATAGTCCACGTGCACTCCCAATGGAAGTTCGGAATC
binding result (GST-HY5): binds
binding result (6xHis-BBX21 (STH2)): no binding

binding result (GST-ABI5): binds
B2: 6×His-BBX21 (natural protein, Arabidopsis thaliana, UniProt Q9LQZ7 1-331, looked up)
chain: T2 sequence
notes: BBX21 (STH2), Arabidopsis thaliana; also called 6×His-tagged BBX21; source: Escherichia coli, purified

From PMC3937224, “Convergence of Light and ABA Signaling on the ABI5 Promoter” (PLoS Genetics, 2014)
